# Results: patent publication US20210196796A1 (SYNTHEKINE, published 2021)
# Positions count from the first letter of the chain named. Names may count otherwise.
# T1: orthogonal hCD122 receptor (hoRb), hCD122 with H133D and Y134F (human, UniProt P14784 27-550)
# T1 sequence: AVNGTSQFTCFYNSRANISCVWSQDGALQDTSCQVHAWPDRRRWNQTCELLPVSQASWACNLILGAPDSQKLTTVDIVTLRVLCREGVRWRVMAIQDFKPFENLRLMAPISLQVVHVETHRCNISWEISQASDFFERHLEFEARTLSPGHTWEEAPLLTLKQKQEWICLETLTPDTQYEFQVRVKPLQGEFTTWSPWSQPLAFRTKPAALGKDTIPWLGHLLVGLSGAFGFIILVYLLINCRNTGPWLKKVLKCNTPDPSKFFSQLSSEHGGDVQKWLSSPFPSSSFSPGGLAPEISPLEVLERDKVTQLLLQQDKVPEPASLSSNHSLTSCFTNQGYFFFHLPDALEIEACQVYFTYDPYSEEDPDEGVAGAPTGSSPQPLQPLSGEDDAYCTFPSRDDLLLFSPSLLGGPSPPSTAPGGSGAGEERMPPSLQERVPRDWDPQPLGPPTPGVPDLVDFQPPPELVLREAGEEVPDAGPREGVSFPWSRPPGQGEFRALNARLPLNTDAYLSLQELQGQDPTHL
# B1: ΔL19, SQ_LKA (ligand)
# chain: APTSSSTKKTQLQLSQLLLLKAILNGINNYKNPKLTRMLTFKFYMPKKATELKHLQCLEEELKPLEEVLNLAQSKNFHLRPRDLISNINVIVLELKGSETTFMCEYADETATIVEFLNRWITFCQSIISTLT
# B2: ΔD20, SQV_KA (ligand)
# chain: B1 chain with L19V
# B3: L18V, SQVLKA (ligand)
# chain: APTSSSTKKTQLQLSQLVVLLKAILNGINNYKNPKLTRMLTFKFYMPKKATELKHLQCLEEELKPLEEVLNLAQSKNFHLRPRDLISNINVIVLELKGSETTFMCEYADETATIVEFLNRWITFCQSIISTLT
# B4: L18D, SQVLKA (ligand)
# chain: B3 chain with V18D
# B5: T3G, SQVLKA (ligand)
# chain: B3 chain with T3G, V18L
# B6: L18T, SQVLKA (ligand)
# chain: B3 chain with V18T
# B7: SQVSKA (ligand)
# chain: B3 chain with V18L, L20S
# B8: T3A, SQVLKA (ligand)
# chain: B3 chain with T3A, V18L
# B9: L18I, SQVLKA (ligand)
# chain: B3 chain with V18I
# B10: SQILKA (ligand)
# chain: B3 chain with V18L, V19I
# B11: L18Y, SQVLKA (ligand)
# chain: B3 chain with V18Y
# Biological target: T1, orthogonal hCD122 receptor (hoRb), …
# Experiment: cell-based or functional assay
# Throughout, for Relative Proliferation Fold Change 3F8 1:10: reference of the scale not given here.
# Throughout, for Relative Proliferation Fold Change 3F8 1:2: reference of the scale not given here.
# Throughout, for Relative Proliferation Fold Change 3F8 1:50: reference of the scale not given here.
# Throughout, for Relative Proliferation Fold Change NKL 1:10: reference of the scale not given here.
# Throughout, for Relative Proliferation Fold Change NKL 1:2: reference of the scale not given here.
# Throughout, for Relative Proliferation Fold Change NKL 1:50: reference of the scale not given here.
3F8 Ortho Proliferation Signal 1:2 [cts/min],3F8 Ortho Proliferation Signal 1:10 [cts/min],3F8 Ortho Proliferation Signal 1:50 [cts/min],Relative Proliferation Fold Change 3F8 1:2 [fold],Relative Proliferation Fold Change 3F8 1:10 [fold],Relative Proliferation Fold Change 3F8 1:50 [fold],Binder
736,1070,1540,1.11,1.27,1.98,B1
1010,1270,1370,1.51,1.35,1.66,B2
36500,29500,9920,139,19.2,12,B3
44000,49600,25200,92.5,81.3,28.4,B4
31800,24400,9460,20.4,19.4,7.14,B5
61100,51800,25700,2.05,6.27,13.8,B6
47300,56600,33100,0.81,1.23,1.29,B7
41400,39300,19500,17.1,11,8.68,B8
36900,37300,19400,81.2,29.8,11,B9
38500,45700,20300,45.8,34.2,34.4,B10
47600,51400,28200,214,101,64,B11

# Biological target: T1, orthogonal hCD122 receptor (hoRb), …
# Experiment: cell-based or functional assay
# Remark: another data set of the same source
NKL Ortho Proliferation Signal 1:2,NKL Ortho Proliferation Signal 1:10,NKL Ortho Proliferation Signal 1:50,Relative Proliferation Fold Change NKL 1:2 [fold],Relative Proliferation Fold Change NKL 1:10 [fold],Relative Proliferation Fold Change NKL 1:50 [fold],Binder
6440,9120,8470,0.49,0.62,0.59,B1
6790,9390,8690,0.52,0.59,0.56,B2
17800,14000,8670,1.36,0.96,0.62,B3
6380,8160,7460,0.6,0.59,0.56,B4
58900,66900,32200,3.94,3.76,1.92,B5
25000,20100,11300,2.37,1.49,0.87,B6
59500,73700,45000,1,1.73,1.91,B7
69100,79500,47000,3.91,4.22,2.67,B8
23800,20500,11000,2.05,1.38,0.8,B9
55300,52500,24500,4.01,3.44,1.67,B10
37300,27000,14800,3.34,2.09,1.19,B11
